Assay results published in US20110300138A1 (published 2011).

Columns and labels:
[1] = biological target: TSH receptor (TSHR) coated on tubes (human) (UniProt P16473); assay: inhibition of 125I-K1-70 IgG binding to TSHR coated tubes; sample 0.003 µg/mL in HBD serum pool; duplicate determination
[2] = biological target: thyroid stimulating hormone receptor (TSHR), full length human TSHR (human) (UniProt P16473); assay: TSH-biotin competition ELISA, TSHR coated wells; negative control, 100 µg/mL in assay buffer
[3] = biological target: human thyroid stimulating hormone receptor (TSHR), full length (human) (UniProt P16473); assay: 125I-K1-70 Fab (competitor) binding to TSHR coated tubes; negative control MAb 1 µg/mL in assay buffer
[4] = biological target: TSH receptor (full length human TSHR) (human) (UniProt P16473); assay: competition ELISA: inhibition of M22 Fab-peroxidase (competitor) binding to TSHR coated wells; negative control at 0.01 µg/mL diluted in HBD serum pool
[5] = biological target: TSHR (full length) coated on tubes (human) (UniProt P16473); assay: inhibition of 125I-K1-18 Fab (competitor) binding to TSHR coated tubes; negative control 10 µg/mL in assay buffer
[6] = biological target: TSH receptor (TSHR), full length human, coated on tubes (human) (UniProt P16473); assay: inhibition of 125I-TSH binding to TSHR coated tubes; 10 µg/mL, diluted in HBD serum pool
[7] = biological target: TSH receptor (TSHR), full length human, coated on tubes (human) (UniProt P16473); assay: inhibition of 125I-K1-18 IgG binding to TSHR coated tubes; competitor 125I-K1-18 IgG; negative control sample at 0.1 µg/mL in HBD serum
[8] = biological target: human thyroid stimulating hormone receptor (TSHR), full length (human) (UniProt P16473); assay: 125I-K1-70 Fab (competitor) binding to TSHR coated tubes; negative control MAb 100 µg/mL in HBD serum
[9] = biological target: human TSH receptor (full length) coated on ELISA plate wells (human) (UniProt P16473); assay: TSH-biotin binding inhibition ELISA, TSHR coated wells; 10 µg/mL in HBD serum pool; negative control MAb
[10] = biological target: thyroid stimulating hormone receptor (TSHR), full length human TSHR (human) (UniProt P16473); assay: TSH-biotin competition ELISA, TSHR coated wells; negative control, 0.1 µg/mL in HBD serum
[11] = biological target: TSH receptor (full length human TSHR) (human) (UniProt P16473); assay: competition ELISA: inhibition of M22 Fab-peroxidase (competitor) binding to TSHR coated wells; negative control at 10 µg/mL diluted in assay buffer
[12] = biological target: wild type TSHR expressed in CHO cells (human) (UniProt P16473); assay: cell-based or functional assay
[13] = biological target: TSHR with Phe134 mutated to Ala, expressed in CHO cells (human) (UniProt P16473); assay: cell-based or functional assay
[14] = biological target: TSH receptor (TSHR), full length human, coated on tubes (human) (UniProt P16473); assay: inhibition of 125I-K1-18 IgG binding to TSHR coated tubes; competitor 125I-K1-18 IgG; sample at 10 µg/mL in assay buffer
[15] = biological target: TSHR (thyroid stimulating hormone receptor), full length human (human) (UniProt P16473); assay: competitor ^125I-K1-70 IgG, TSHR coated tubes; 0.1 µg/mL in assay buffer
[16] = biological target: TSHR (thyroid stimulating hormone receptor), full length human (human) (UniProt P16473); assay: competitor ^125I-K1-70 IgG, TSHR coated tubes; 0.01 µg/mL in assay buffer
[17] = biological target: TSH receptor (full length human TSHR) (human) (UniProt P16473); assay: competition ELISA: inhibition of M22 Fab-peroxidase (competitor) binding to TSHR coated wells; test sample at 0.1 µg/mL diluted in assay buffer
[18] = biological target: human thyroid stimulating hormone receptor (TSHR), full length (human) (UniProt P16473); assay: 125I-K1-18 Fab competition, TSHR coated tubes; 100 µg/mL in assay buffer
[19] = biological target: TSH receptor (TSHR), full length human, coated on tubes (human) (UniProt P16473); assay: inhibition of 125I-TSH binding to TSHR coated tubes; 0.1 µg/mL, diluted in HBD serum pool
[20] = biological target: thyroid stimulating hormone receptor (TSHR), full length, coated on tubes (human) (UniProt P16473); assay: inhibition of 125I-TSH binding, TSHR coated tubes; antibody 1 µg/mL in HBD serum pool
[21] = biological target: TSH receptor (TSHR), full length human, coated on tubes (human) (UniProt P16473); assay: inhibition of 125I-K1-18 IgG (competitor) binding to TSHR coated tubes; test sample at 10 µg/mL in assay buffer
[22] = biological target: human TSH receptor (full length) coated on ELISA plate wells (human) (UniProt P16473); assay: TSH-biotin binding inhibition ELISA, TSHR coated wells; 0.01 µg/mL in HBD serum pool
[23] = biological target: TSH receptor (TSHR), full length human, coated on tubes (human) (UniProt P16473); assay: inhibition of 125I-K1-18 IgG (competitor) binding to TSHR coated tubes; test sample at 0.01 µg/mL in HBD serum pool
[24] = biological target: thyroid stimulating hormone receptor (TSHR), full length, coated on tubes (human) (UniProt P16473); assay: inhibition of 125I-TSH binding, TSHR coated tubes; antibody 0.1 µg/mL in assay buffer; mean of duplicate
[25] = biological target: TSH receptor (TSHR) coated on tubes (human) (UniProt P16473); assay: inhibition of 125I-K1-70 IgG binding to TSHR coated tubes; sample 0.1 µg/mL in HBD serum pool

M22 IgG (antibody)
Inhibition of binding (%) [1]: 6.2%

5B3 IgG (antibody)
Inhibition of binding (%) [2]: 1.3% | Inhibition of binding (%) [3]: -1.7% | Inhibition of binding (%) [4]: 4.3% | Inhibition of binding (%) [5]: 0.6% | Inhibition of binding (%) [6]: -1.9% | Inhibition of binding (%) [7]: -7.8% | Inhibition of binding (%) [8]: -8.6% | % inhibition of TSH-biotin binding [9]: 11.6% | Inhibition of binding (%) [10]: -1.2% | Inhibition of binding (%) [11]: 2.4%

TSH (ligand)
Cyclic AMP produced, TSH 0.01 ng/mL, wild type TSHR [12]: 2.5 pmol/mL | Cyclic AMP produced, TSH 0.03 ng/mL, wild type TSHR [12]: 4.29 pmol/mL | Cyclic AMP produced, TSH 0.1 ng/mL, wild type TSHR [12]: 10.6 pmol/mL | Cyclic AMP produced, TSH 0.3 ng/mL, wild type TSHR [12]: 28.9 pmol/mL | Cyclic AMP produced, TSH 1 ng/mL, wild type TSHR [12]: 52.5 pmol/mL | Cyclic AMP produced, TSH 3 ng/mL, wild type TSHR [12]: 61.1 pmol/mL | Cyclic AMP produced, TSH 0.01 ng/mL, mutated TSHR [13]: 4.73 pmol/mL | Cyclic AMP produced, TSH 0.03 ng/mL, mutated TSHR [13]: 6.05 pmol/mL | Cyclic AMP produced, TSH 0.1 ng/mL, mutated TSHR [13]: 12.7 pmol/mL | Cyclic AMP produced, TSH 0.3 ng/mL, mutated TSHR [13]: 27.3 pmol/mL | Cyclic AMP produced, TSH 1 ng/mL, mutated TSHR [13]: 53.7 pmol/mL | Cyclic AMP produced, TSH 3 ng/mL, mutated TSHR [13]: 61.5 pmol/mL | Mutated/Wild type (%), TSH 0.01 ng/mL [13]: 189% | Mutated/Wild type (%), TSH 0.03 ng/mL [13]: 141% | Mutated/Wild type (%), TSH 0.1 ng/mL [13]: 120% | Mutated/Wild type (%), TSH 0.3 ng/mL [13]: 94% | Mutated/Wild type (%), TSH 1 ng/mL [13]: 102% | Mutated/Wild type (%), TSH 3 ng/mL [13]: 101%

9D33 IgG (antibody)
Inhibition of binding (%) [14]: 63.2% | Inhibition of binding (%) [15]: 24.8% | Inhibition of binding (%) [16]: 9.4% | Inhibition of binding (%) [17]: 35.1%

B1: 5C9 IgG (antibody, from another filing, V domains shown)
VH: EVQLVESGGGLIQPGGSLRLSCAASGFTVSSNYMSWVRQAPGKGLEWVSVTYSGGSTSYADSVKGRFTISRDNSKNTLYLQMNSLRAEDTAVYYCARGGRYCSSISCYARSGCDYWGQGTLVTVSS
VL: AIQMTQSPSSLSASVGDRVTITCRASQSISNYLNWYQQKPGKAPKLLIYAASSLQSGVPSRFSGSGSGTDFTLTISSLQPEDFATYYCQQSYSSPSTTFGQGTKLEIK
Inhibition of binding (%) [18]: 85.2% | Inhibition of binding (%) [19]: 7% | Inhibition of binding (%) [20]: 19.7% | Inhibition of binding (%) [21]: 65.9% | % inhibition of TSH-biotin binding [22]: 7.5% | Inhibition of binding (%) [23]: -1.8% | Inhibition of binding (%) [24]: 21.3% | Inhibition of binding (%) [25]: 4.4%
